Measurements published in publication PMC9208311.

Target: zebrafish procaspase-3b (CP-C117S) (zebrafish (Danio rerio))
Test: SEC; Superdex75 Increase 10/300GL, 25 uM protein, 100 ul loaded, dialysed ~16 h at 25°C; citrate buffer pH 5, 6 and 6.5, phosphate buffer pH 7.5 and 8; column standardised with LMW calibration kit

stoichiometry N: 2
Substance: zebrafish procaspase-3b (CP-C117S) (enzyme)
